Experimental findings from PMC3302947 are described below.

A word on the stoichiometry N: it is the number of molecules, sites or subunits per partner or assembly.

In this assay the target is Vif(155–176) (PPLP peptide) (HIV-1). Nature of the assay: AUC.

For Vif(155–176) (PPLP peptide), the stoichiometry N came to 2.
